{
  "source": "patent US20210102195A1",
  "about": "(TWIST BIOSCIENCE, published 2021)",
  "binders": {"B1": {"name": "CRTH2-42 (antibody)", "VH": "QVQLVESGGGVVQPGRSLRLSCAASGFAFSSYAMHWVRQAPGKGLEWVAVISYEGSNEYYADSVKGRFTISRDNSKNTLYLQMNSLRAEDTAVYYCARDLRELECEEWTVLQYGKFHMRWAESGEGSLSRGPCVDPRGVAGSFDVWGQGTLVTVSS", "VL": "QSALTQPASVSGSPGQSITISCTGTSSDVGGYRYVSWYQQHPGKAPKLMIYNVNYRPSGVSNRFSGSKSGNTASLTISGLQAEDEADYYCSSYRSSSTLGVFGGGTKLTVL"}, "B2": {"name": "CRTH2-74 (antibody)", "VH": "QVQLVESGGGVVQPGRSLRLSCAASGFSFSEYGIHWVRQAPGKGLEWVAVISYEGSNEYYADSVKGRFTISRDNSKNTLYLQMNSLRAEDTAVYYCARANQHFGPVAGGATPSEEPGSQLTRAELGWDAPPGQESLADELLQLGTEHGYHYYGMDVWGQGTLVTVSS", "VL": "QSVLTQPPSVSAAPGQKVTISCSGSTSNIGKNYVSWYQQLPGTAPKLLIYDDDERPSGIPDRFSGSMSGTSATLGITGLQTGDEADYYCEAWDADLSGAVFGGGTKLTVL", "notes": "CRTH2R IgG"}, "B3": {"name": "CRTH2-28 (antibody, V domains shown)", "VH": "QVQLVQSGAEVKKPGSSVNVSCKASGGTFSDYAFSWVRQAPGQGLEWMGAIIPFFGTVNYAQKFQGRVTITADESTSTAYMELSSLRSEDTAVYYCARDMYYDFATGTGGPEDDLYPQGELNDGYRIEVVPADDAFDIWGQGTLVTVSS", "VL": "B2 VL with T26I, D53H, E54K, M67K, E90A, A91T, A94R, D95G, G98A"}, "B4": {"name": "CRTH2-60 (antibody, V domains shown)", "VH": "QVQLVQSGAEVKKPGSSVKVSCKASGGTFKNYAINWVRQAPGQGLEWMGAIIPKFGAANYAQKFQGRVTITADESTSTAYMELSSLRSEDTAVYYCARANQHFSAVRGLAFGYGYRIGGYHYYGMDVWGQGTLVTVSS", "VL": "QSVLTQPPSVSAAPGQKVTISCSGSTSNIGINYVSWYQQLPGTAPKLLIYENRKRPSGIPDRFSGSKSGTSATLGITGLQTGDEADYYCATWDASLKNLVFGGGTKLTVL"}, "B5": {"name": "CRTH2-8 (antibody, V domains shown)", "VH": "QVQLVQSGAEVKKPGSSVKVSCKASGGTFTDYAISWVRQAPGQGLEWMGGIIPFFGSPNYAQKFQGRVTITADESTSTAYMELSSLRSEDTAVYYCARDMYYDFAAGLEGTITEVFDEEGHQGGTEVVPADDAFDIWGQGTLVTVSS", "VL": "B4 VL with T26S, I31K, E51D, R53N, K54Q, A90G, A94T, K97T, N98S, L99V", "notes": "CRTH2R IgG"}, "B6": {"name": "CRTH2-15 (antibody, V domains shown)", "VH": "QVQLVQSGAEVKKPGSSVKVSCKASGGTFSTYAIDWVRQAPGQGLEWMGGIIPLFGSPNYAQKFQGRVTITADESTSTAYMELSSLRSEDTAVYYCARANQHFFLYEGTSSSWLHVGHARYGYHYYGMDVWGQGTLVTVSS", "VL": "QSVLTQPPSVSAAPGQKVTISCSGSGSNIGSNYVSWYQQLPGTAPKLLIYDNIRRPSGIPDRFSGSKSGTSATLGITGLQTGDEADYYCAAWDTRLSAGVFGGGTKLTVL", "notes": "CRTH2R IgG"}, "B7": {"name": "CRTH2-19 (antibody, V domains shown)", "VH": "QVQLVQSGAEVKKPGSSVKVSCKASGGTFSSHAINWVRQAPGQGLEWMGRIIPIVGTTTYAQKFQGRVTITADESTSTAYMELSSLRSEDTAVYYCARDMYYDFDYFGLTLTGDRNDDEVVPADDAFDIWGQGTLVTVSS", "VL": "QSALTQPASVSGSPGQSITISCTGTSSDVGGYDYVTWYQQHPGKAPKLMIYDVDTRPSGVSNRFSGSKSGNTASLTISGLQAEDEADYYCSSYTTSTSYVFGGGTKLTVL", "notes": "CRTH2R IgG"}, "B8": {"name": "CRTH2-45 (antibody)", "VH": "QVQLVESGGGVVQPGRSLRLSCAASGFTFSHYAMHWVRQAPGKGLEWVADISHEGSNKYYADSVKGRFTISRDNSKNTLYLQMNSLRAEDTAVYYCARDGRGSLPRPKGGPTSGGGFSTNIGYGFVVQSYDSSEDSGGAFDIWGQGTLVTVSS", "VL": "QSVLTQPPSVSAAPGQKVTISCSGTSSNIENNYVSWYQQLPGTAPKLLIYDNVKRPSGIPDRFSGSKSGTSATLGITGLQTGDEADYYCGTWDNTVSAPWVFGGGTKLTVL", "notes": "CRTH2R IgG"}, "B9": {"name": "CRTH2-70 (antibody, V domains shown)", "VH": "QVQLVQSGAEVKKPGSSVKVSCKASGGTFSNHAIIWVRQAPGQGLEWMGGIIPIFGTPSYAQKFQGRVTITADESTSTAYMELSSLRSEDTAVYYCARDMYYDFDVISAGVVGAGNPEVVPADDAFDIWGQGTLVTVSS", "VL": "QSVLTQPPSVSAAPGQKVTISCSGSTSNIGNNFVSWYQQLPGTAPKLLIYDNEKRPSGIPDRFSGSKSGTSATLGITGLQTGDEADYYCGTWDERQTDESYVFGGGTKLTVL"}, "B10": {"name": "CRTH2-24 (antibody, V domains shown)", "VH": "QVQLVQSGAEVKKPGSSVKVSCKASGGSFSNYGISWVRQAPGQGLEWMGGIIPLIGTANYAQKFQGRVTITADESTSTAYMELSSLRSEDTAVYYCARDMYYDFTLGPQSIGPLGEVVPADDAFDIWGQGTLVTVSS", "VL": "QSVLTQPPSVSAAPGQKVTISCSGSSSNIGNNFVSWYQQLPGTAPKLLIYDNIQRPSGIPDRFSGSKSGTSATLGITGLQTGDEADYYCGTWDTSLSAVVFGGGTKLTVLR"}, "B11": {"name": "CRTH2 35 (antibody, V domains shown)", "VH": "QVQLVQSGAEVKKPGSSVKVSCKASGGTFRSYAISWVRQAPGQGLEWMGGIIPISGTTNYAQKFQGRVTITADESTSTAYMELSSLRSEDTAVYYCARANQHFTRIFGNYQIYFGHFGYHYYGMDVWGQGTLVTVSS", "VL": "B1 VL with V29I, R33E, Y34F, N52G, N54S, Y55R, S91G, R94T, L99P, G100Y"}, "B12": {"name": "CRTH2 66 (antibody)", "heavy chain (variable domain given)": "QVQLVESGGGVVQPGRSLRLSCAASGFDFSGYGMHWVRQAPGKGLEWVAVISYEGSNKFYADSVKGRFTISRDNSKNTLYLQMNSLRAEDTAVYYCARDLRELECEEWTIEVHGQEFAVHQDRGGVFSRGPCVDPRGVAGSFDVWGQGTLVTVSS", "light chain (variable domain given)": "EIVMTQSPATLSVSPGERATLSCRASQGVGSNLAWYQQKPGQAPRLLIYRTSIRATGIPARFSGSGSGTEFTLTISSLQSEDFAVYYCQQYYSWPPLTFGGGTKVEIK"}, "B13": {"name": "CRTH2 57 (antibody, V domains shown)", "VH": "QVQLVQSGAEVKKPGSSVKVSCKASGGTFSSYAMSWVRQAPGQGLEWMGGIIPLFGTTDYAQKFQGRVTITADESTSTAYMELSSLRSEDTAVYYCARANQHFVKIQGAPVSTPVPGFGTTGYHYYGMDVWGQGTLVTVSS", "VL": "B6 VL with G26S, G30E, S31D, I53F, R54K, A90G, A91T, R95S, G99A, V100L"}, "B14": {"name": "CRTH2 39 (antibody, V domains shown)", "VH": "QVQLVQSGAEVKKPGSSVKVSCKASVDTFSRYSISWVRQAPGQGLEWMGGIIPVFDTTNYAQKFQGRVTITADESTSTAYMELSSLRSEDTAVYYCARDMYYDFGVILGGTAVGTNNGSANEVVPADDAFDIWGQGTLVTVSS", "VL": "QSVLTQPPSVSAAPGQKVTISCSGSSSNIGDNDVSWYQQLPGTAPKLLIYDDDKRPSGIPDRFSGSKSGTSATLGITGLQTGDEADYYCASWDTSLSGGYVFGGGTKLTVL"}, "B15": {"name": "TIGIT-55-05 (antibody, V domains shown)", "VH": "EVQLLESGGGLVQPGGSLRLSCAASGFVFSSYAMNWVRQAPGKGLEWVSTVSGSGGTTYYADSVKGRFTISRDNSKNTLYLQMNSLRAEDTAVYYCARAPYSSSSWFDYWGQGTLVTVSS", "VL": "DIQMTQSPSSLSASVGDRVTITCRASQSVRSYLNWYQQKPGKAPKLLIYTATSLESGVPSRFSGSGSGTDFTLTISSLQPEDFATYYCQQSYGLPRTFGGGTKVEIK", "notes": "hTIGIT IgG"}, "B16": {"name": "TIGIT-55-01 (antibody, V domains shown)", "VH": "EVQLLESGGGLVQPGGSLRLSCAASGFTFGSYGMSWVRQAPGKGLEWVSSISGSGSTTYYADSVKGRFTISRDNSKNTLYLQMNSLRAEDTAVYYCARVAGSSGWAFDYWGQGTLVTVSS", "VL": "DIQMTQSPSSLSASVGDRVTITCRASQAISNYLNWYQQKPGKAPKLLIYAASRLQSGVPSRFSGSGSGTDFTLTISSLQPEDFATYYCQESYSTPFTFGGGTKVEIK", "notes": "hTIGIT IgG"}, "B17": {"name": "TIGIT-55-02 (antibody, V domains shown)", "VH": "EVQLLESGGGLVQPGGSLRLSCAASGLTFSNYAMTWVRQAPGKGLEWVSGISRSGGSTYYADSVKGRFTISRDNSKNTLYLQMNSLRAEDTAVYYCATLRLYSSGGGIDYWGQGTLVTVSS", "VL": "B16 VL with A28Y, N31T, R53S, S56G, E90Q, S91N, S93I, F96L", "notes": "hTIGIT IgG"}},
  "note": "Numbering of substitutions follows the chain as printed.",
  "data": [
    {"target": "T1, CRTH2R (UniProt Q9Y5Y4 1-395, limits assumed)", "T1 sequence (looked up)": "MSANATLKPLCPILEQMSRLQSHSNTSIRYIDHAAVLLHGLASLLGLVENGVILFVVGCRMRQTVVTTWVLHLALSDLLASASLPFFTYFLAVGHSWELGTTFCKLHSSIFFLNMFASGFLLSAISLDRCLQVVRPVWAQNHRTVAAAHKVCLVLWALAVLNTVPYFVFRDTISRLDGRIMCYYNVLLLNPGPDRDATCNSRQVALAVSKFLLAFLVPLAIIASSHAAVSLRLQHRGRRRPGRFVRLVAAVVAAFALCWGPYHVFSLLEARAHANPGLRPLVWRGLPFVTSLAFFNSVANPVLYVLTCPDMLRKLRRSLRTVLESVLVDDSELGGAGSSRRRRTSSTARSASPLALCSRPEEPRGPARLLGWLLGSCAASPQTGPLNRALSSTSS", "test": "cell-based or functional assay", "units": {"IC50 fold difference of the PGD2 dose response (cAMP) with 100 nM IgG": "fold", "antagonist activity in PGD2-induced cAMP assay at 33 nM IgG": "%"}, "values": [
      {"binder": "B1", "IC50 fold difference of the PGD2 dose response (cAMP) with 100 nM IgG": "> 2", "antagonist activity in PGD2-induced cAMP assay at 33 nM IgG": "> 20"},
      {"binder": "B2", "antagonist activity in PGD2-induced cAMP assay at 33 nM IgG": "> 20"},
      {"binder": "B3", "antagonist activity in PGD2-induced cAMP assay at 33 nM IgG": "> 20"},
      {"binder": "B4", "antagonist activity in PGD2-induced cAMP assay at 33 nM IgG": "> 20"},
      {"binder": "B5", "antagonist activity in PGD2-induced cAMP assay at 33 nM IgG": "> 20"},
      {"binder": "B6", "antagonist activity in PGD2-induced cAMP assay at 33 nM IgG": "> 20"},
      {"binder": "B7", "antagonist activity in PGD2-induced cAMP assay at 33 nM IgG": "> 20"},
      {"binder": "B8", "antagonist activity in PGD2-induced cAMP assay at 33 nM IgG": "> 20"},
      {"binder": "B9", "antagonist activity in PGD2-induced cAMP assay at 33 nM IgG": "> 20"},
      {"binder": "B10", "antagonist activity in PGD2-induced cAMP assay at 33 nM IgG": "> 20"}
    ]},
    {"target": "T1, CRTH2R", "test": "flow cytometry (MFI), CHO CRTH2R-positive cells against parental CHO cells, 3-fold titration from 100 nM; grey = CRTH2R cells, black = parental cells (no legend on the panel)", "procedure": "Cell binding of anti-CRTH2R antibodies was determined by testing on CHO CRTH2R-positive cells (GFP+) and parental CHO cells (GFP−), comparing parental negative and target positive cells to rule out false-positives. Antibodies as listed in Table 14A were titrated starting at 100 nM (15 ug/mL) with 3-fold titrations, for a total of 8 points. Two antibodies (gPCR-51 and gPCR-52) were used as a positive control.", "units": {"EC50": "nM"}, "values": [
      {"binder": "B11", "EC50": 12.6},
      {"binder": "B12", "EC50": 3.95},
      {"binder": "B2", "EC50": 8.61},
      {"binder": "B5", "EC50": 135},
      {"binder": "B6", "EC50": 73.8},
      {"binder": "B13", "EC50": 158},
      {"binder": "B7", "EC50": 16.7},
      {"binder": "B8", "EC50": 23.2},
      {"binder": "B14", "EC50": 19}
    ]},
    {"target": "T2, human TIGIT (human, UniProt Q495A1 22-141, limits assumed)", "T2 construct": "also called hTIGIT", "T2 sequence (looked up)": "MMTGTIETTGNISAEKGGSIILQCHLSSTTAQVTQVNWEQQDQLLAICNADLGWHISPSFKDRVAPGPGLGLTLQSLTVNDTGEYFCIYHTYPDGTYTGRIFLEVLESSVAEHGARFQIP", "test": "monovalent affinity of the hTIGIT IgGs; method not named in Example 14", "units": {"Kd": "nM"}, "values": [
      {"binder": "B15", "Kd": 97.6},
      {"binder": "B16", "Kd": 15.9},
      {"binder": "B17", "Kd": 141}
    ]}
  ]
}
